This assay addresses plasma kallikrein (human) (UniProt P03952). Briefly: cell-based or functional assay.

Sequence of plasma kallikrein (human) (P03952 20-638 limits assumed): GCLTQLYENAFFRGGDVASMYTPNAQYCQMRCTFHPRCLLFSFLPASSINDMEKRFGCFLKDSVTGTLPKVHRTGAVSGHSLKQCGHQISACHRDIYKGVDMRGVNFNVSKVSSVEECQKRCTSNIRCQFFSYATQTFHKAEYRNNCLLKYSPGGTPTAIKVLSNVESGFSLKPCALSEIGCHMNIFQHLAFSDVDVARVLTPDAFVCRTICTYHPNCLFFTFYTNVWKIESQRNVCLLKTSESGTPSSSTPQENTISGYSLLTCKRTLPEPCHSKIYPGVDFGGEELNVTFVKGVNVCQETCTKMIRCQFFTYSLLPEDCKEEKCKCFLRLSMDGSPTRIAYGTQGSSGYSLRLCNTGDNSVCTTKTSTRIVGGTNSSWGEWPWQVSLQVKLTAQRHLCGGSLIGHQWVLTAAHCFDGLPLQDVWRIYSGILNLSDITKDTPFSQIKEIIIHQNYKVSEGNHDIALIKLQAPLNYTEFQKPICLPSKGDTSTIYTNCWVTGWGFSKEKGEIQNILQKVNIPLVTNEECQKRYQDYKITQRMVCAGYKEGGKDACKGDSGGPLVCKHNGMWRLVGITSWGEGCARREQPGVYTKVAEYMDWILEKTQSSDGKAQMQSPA

B1: lanadelumab (antibody, V domains shown)
VH: EVQLLESGGGLVQPGGSLRLSCAASGFTFSHYIMMWVRQAPGKGLEWVSGIYSSGGITVYADSVKGRFTISRDNSKNTLYLQMNSLRAEDTAVYYCAYRRIGVPRRDEFDIWGQGTMVTVSS
VL: DIQMTQSPSTLSASVGDRVTITCRASQSISSWLAWYQQKPGKAPKLLIYKASTLESGVPSRFSGSGSGTEFTLTISSLQPDDFATYYCQQYNTYWTFGQGTKVEI
As for B1, the IC50 for lanadelumab inhibition of 2-chain HMWK generation (FXIIa-activated citrated plasma, Western blot and sandwich ELISA) stood at 212 nM.

The record behind these values is US20210270842A1.
